How the values were obtained:
[1] = Post-injection bleb volume, area, height - 3D imaging; assay type: in vivo, Yucatan miniature pig (Sus scrofa domestica); settings: minipig, 10 mL SC by HVAI, T0; n=3 alone, n=2 with rHuPH20
Experimental: 3D imaging was applied as a longitudinal methodology to measure post-injection swelling. By obtaining high definition pre- and post-injection 3D images the distances between two registered surfaces can be determined. The camera captures images using a factory calibrated bifocal imaging system to measure distance between surfaces. Surface registration was performed using a multipoint method that utilized common landmarks between the pre-injection image and the post-injection image. Using the proprietary software, the volume, area and height of the post-injection swelling was calculated for each injection (Canfield Biosciences, Inc.).
Assessment of Post-Injection Bleb Shape, Volume, Area and Height (3D Imaging). Pre- and post-injection photographs were taken using a 3D imaging system (Canfield Scientific). This technology permits point-to-point alignment of these two images through multipoint surface registration. The distance between any two points is then represented using a colorimetric surface contour map. […] The color intensity is proportional to the amount of distance measured between images with darker blue color indicating greater distance from the pre-injection image. Out of range measurements (distances greater than 6 mm) are depicted in white. Bleb measurements of volume and height include regions out of range.
These registered pre-/post-injection images were then used to calculate the bleb volume, height, circumference, length, and width for each bleb using proprietary software (Vectra H1 software; Canfield Sciences).

[2] = pig, in vivo, sc
Experimental: Porcine serum was used as surrogate matrix to prepare calibration standards and quality controls for skin sample quantitation. Untreated blank porcine skin was provided for preparation of monitoring quality controls. The porcine skin was homogenized at an approximate ratio of 0.5 mL of buffer for every 100 mg of skin.
Porcine serum was used as surrogate matrix to prepare calibration standards and quality controls for the quantitation of skin samples. Supported liquid-liquid extraction was used for sample clean up. […] The porcine skin was homogenized at an approximate ratio of 0.5 mL of buffer for every 100 mg of skin.
Therefore, nominal time points were used for PK analyses. To estimate the serum concentration at time zero for intravenous (IV) data, a second-order polynomial regression was applied to the early serum time points (0.25, 1, and 2 hours). The intercept of the fitted polynomial curve was used as the extrapolated concentration at time zero. Skin concentration data (μg/mL) was normalized to total protein (mg/mL) per sample, resulting in values represented as μg/mg protein.
Pharmacokinetic parameters were calculated using noncompartmental methods performed in Microsoft Excel. The area under the concentration-time curve (AUC) was determined using the linear trapezoidal rule. For serum data, AUC0-7 was calculated using all available time points. For skin data, AUC1-7 was computed based on the three available time point measurements. The maximum observed concentration (Cmax) was identified directly from the dataset, and the time at which it occurred (Tmax) was recorded. All calculations were performed using Microsoft Excel.
This sample was divided vertically into two identical pieces. One skin sample was placed into a pre-weighed cryogenic tube and its weight was recorded then stored on dry ice prior to transfer to ≤−70° C. The other skin sample was processed for potential future histological assessment into OCT freezing media and frozen on dry ice.
Animals received two SC doses on their lower abdominal region.
Two cohorts were included in the follow-on study. […] Each animal had two full thickness skin biopsies taken post-mortem using a 12 mm punch. This sample was divided vertically into two identical pieces. One skin sample was placed into a pre-weighed cryogenic tube and its weight was recorded, then stored on dry ice prior to transfer to ≤−70° C. The other skin sample was processed into OCT molds for potential future histological assessment.
Tissue lysates were prepared based upon the weight of the sample at a ratio of 0.2 g/mL homogenization buffer (Tables 64 and 65). The total protein concentration of each homogenate was determined by BCA assay. The concentration of the total ADC (TADC), total antibody (TAB) and free payload (SN38) in each sample was then normalized to the protein concentration and reported in μg analyte per mg total protein.
In this initial study, six animals were used. […] Two cohorts were included in this study. Cohort 1 was euthanized 24 hours after treatment, while Cohort 2 was euthanized 48 hours after exposure to the two test solutions.

Substance: Sacituzumab govitecan [Trodelvy]
- Bleb Area (cm^2), 3D imaging (Mean ± SEM) [1]: 30.5 ± 2.9 cm^2
- Bleb Height (mm), 3D imaging (Mean ± SEM) [1]: 7.6 ± 1.2 mm
- Bleb Volume (mL), 3D imaging (Mean ± SEM) [1]: 8.1 ± 0.7 mL
- AUC(1-7) of free payload in tissue homogenates of injection site, Mean [2]: 0.17 µg·days/mL
- AUC(1-7) of total ADC (TADC) in tissue homogenates of injection site, Mean [2]: 18.55 µg·days/mL
- AUC(1-7) of total antibody (TAB) in tissue homogenates of injection site, Mean [2]: 45.30 µg·days/mL
- Cmax of free payload in tissue homogenates of injection site, Mean [2]: 180 ng/mL
- Cmax of total ADC (TADC) in tissue homogenates of injection site, Mean [2]: 22860 ng/mL
- Cmax of total antibody (TAB) in tissue homogenates of injection site, Mean [2]: 29410 ng/mL
- TADC/Free Payload, mean AUC(1-7) [2]: 10704%
- TADC/Free Payload, mean Cmax [2]: 12800%
- TADC/TAB, mean AUC(1-7) [2]: 41%
- TADC/TAB, mean Cmax [2]: 78%
- Total ADC Result [2]: <0.100 µg/mL

— patent US20260069707A1, “COMBINATION THERAPY WITH ANTIBODY-DRUG CONJUGATES AND HYALURONIDASES” (HALOZYME, INC., priority 2024, published 2026)
